In assay [1] the target is T1, rat amylin receptor (rat calcitonin receptor + rat RAMP 3) (rat, UniProt P32214 25-516; Q9JJ73 23-147).
T1 construct: whole, on cells; Used as membranes prepared from transiently transfected BHK tk'ts 13 cells (Assay VI); also called rAmylin-R; rat amylin 3(a) receptor
T1 sequence (looked up) 1: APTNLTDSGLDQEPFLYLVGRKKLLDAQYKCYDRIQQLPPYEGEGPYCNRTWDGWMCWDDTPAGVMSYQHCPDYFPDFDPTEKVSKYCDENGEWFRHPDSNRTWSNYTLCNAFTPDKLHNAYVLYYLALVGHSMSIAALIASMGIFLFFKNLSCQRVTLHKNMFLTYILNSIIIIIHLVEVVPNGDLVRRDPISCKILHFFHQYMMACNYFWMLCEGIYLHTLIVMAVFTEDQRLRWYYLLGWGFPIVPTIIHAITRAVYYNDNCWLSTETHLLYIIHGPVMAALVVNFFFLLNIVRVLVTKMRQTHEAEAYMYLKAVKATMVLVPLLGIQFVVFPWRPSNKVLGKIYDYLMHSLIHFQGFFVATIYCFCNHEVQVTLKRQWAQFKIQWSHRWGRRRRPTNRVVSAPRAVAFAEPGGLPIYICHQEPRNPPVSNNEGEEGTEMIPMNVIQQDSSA
T1 sequence (looked up) 2: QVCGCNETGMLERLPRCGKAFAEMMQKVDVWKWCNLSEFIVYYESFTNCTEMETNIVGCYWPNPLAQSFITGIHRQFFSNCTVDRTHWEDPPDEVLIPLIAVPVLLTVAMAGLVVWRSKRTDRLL
The experiment in a line: SPA competition binding, displacement of 125I-rat amylin from membranes of BHK tk'ts 13 cells with rat calcitonin receptor + rat RAMP 3 (Assay VI).

Assay [2] addresses T2, rat calcitonin receptor (rat, UniProt P32214 25-516).
T2 construct: whole, on cells; Used as membranes prepared from transiently transfected BHK tk'ts 13 cells (Assay VIII); also called rCTR; rat calcitonin (a) receptor
T2 sequence (looked up): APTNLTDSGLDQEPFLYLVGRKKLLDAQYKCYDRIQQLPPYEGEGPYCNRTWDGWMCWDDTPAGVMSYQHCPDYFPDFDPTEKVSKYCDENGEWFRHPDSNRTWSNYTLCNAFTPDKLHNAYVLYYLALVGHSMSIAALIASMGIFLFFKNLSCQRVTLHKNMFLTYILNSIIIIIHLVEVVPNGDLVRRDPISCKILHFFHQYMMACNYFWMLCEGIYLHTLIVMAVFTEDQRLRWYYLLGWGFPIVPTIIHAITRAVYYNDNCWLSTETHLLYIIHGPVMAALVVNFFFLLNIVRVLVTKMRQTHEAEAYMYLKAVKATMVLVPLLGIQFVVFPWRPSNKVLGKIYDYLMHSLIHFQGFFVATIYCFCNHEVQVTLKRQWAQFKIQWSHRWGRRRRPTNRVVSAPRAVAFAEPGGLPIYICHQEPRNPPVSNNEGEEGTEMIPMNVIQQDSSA
As to the kind of experiment: SPA competition binding, displacement of 125I-calcitonin from membranes of BHK tk'ts 13 cells with rat calcitonin receptor (Assay VIII).

Assay [3] addresses T3, human amylin receptor (amylin 3(a) receptor: human calcitonin receptor co-expressed with RAMP-3) (human, UniProt P30988 25-474; O60896 24-148, limits assumed).
T3 construct: whole, on cells; also called hAmylin-R; hAmylinR
T3 sequence (looked up) 1: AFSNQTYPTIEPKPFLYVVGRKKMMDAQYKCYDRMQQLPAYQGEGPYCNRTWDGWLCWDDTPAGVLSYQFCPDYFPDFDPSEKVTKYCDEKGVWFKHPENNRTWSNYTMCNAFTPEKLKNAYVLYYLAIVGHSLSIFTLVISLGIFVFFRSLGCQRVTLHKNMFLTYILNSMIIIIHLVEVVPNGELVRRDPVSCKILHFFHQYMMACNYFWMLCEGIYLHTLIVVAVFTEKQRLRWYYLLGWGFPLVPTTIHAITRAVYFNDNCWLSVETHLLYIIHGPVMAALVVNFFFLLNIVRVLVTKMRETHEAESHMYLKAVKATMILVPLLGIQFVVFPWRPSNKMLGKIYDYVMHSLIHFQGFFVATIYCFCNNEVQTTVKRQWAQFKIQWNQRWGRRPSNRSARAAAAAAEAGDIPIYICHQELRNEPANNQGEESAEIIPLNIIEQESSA
T3 sequence (looked up) 2: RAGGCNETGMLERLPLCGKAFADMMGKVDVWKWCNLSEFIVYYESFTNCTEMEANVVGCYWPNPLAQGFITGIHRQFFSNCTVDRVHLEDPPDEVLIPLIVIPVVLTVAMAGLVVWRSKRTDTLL
The experiment in a line: SPA competition binding, membranes of Amylin 3(a)/CRE-luc BHK cells, displacement of 125I-rat amylin (Assay V). Put shortly:
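One-site competition analysis of SPA counts yielded IC₅₀ as a measure of affinity. Membranes were at 35 ng/μL final; incubation was 120 min at 25° C, pH 7.4.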

Numbered stars: 1 amine (or outer) side, 2 acyl side, 3 side chain; on linkers, the order of the positions; unused ones are H or OH. Bridge positions count the residues as written; N and C are the ends. Square brackets hold non-standard residues; d marks the D form. Side chains are listed from the residue outwards. Ends that are not written are not given here. * marks the point of attachment. C20 diacid = O=C(O)CCCCCCCCCCCCCCCCCCC(=O)*; γGlu = O=C(O)[C@H](CCC(=O)[*:2])N[*:1]

Regarding K([γGlu-γGlu-C20 diacid])CNTATCATQRLA[dD]FLRHSSPNFGAIPSSTNVGSRTY-NH2 (disulfide 2-7 (inferred), Residue 14 is the D-isomer of Asp), the IC50 in assay [1] was 1.69 nM; in assay [2], 536 nM.

B1: N^ε1-[(4S)-4-carboxy-4-[[(4S)-4-carboxy-4-(19-carboxynonadecanoylamino)butanoyl]amino]butanoyl]-[Glu14,Arg17,Pro21,Pro27,Pro34,Glu35,Pro37]-h-amylin (peptide)
peptide: K([γGlu-γGlu-C20 diacid])CNTATCATQRLAEFLRHSSPNFGAIPSSTNVGPETP-NH2
modifications: disulfide 2-7; N-terminus assumed
SMILES: CC[C@H](C)[C@H](NC(=O)[C@H](C)NC(=O)CNC(=O)[C@H](Cc1ccccc1)NC(=O)[C@H](CC(N)=O)NC(=O)[C@@H]1CCCN1C(=O)[C@H](CO)NC(=O)[C@H](CO)NC(=O)[C@H](Cc1c[nH]cn1)NC(=O)[C@H](CCCNC(=N)N)NC(=O)[C@H](CC(C)C)NC(=O)[C@H](Cc1ccccc1)NC(=O)[C@H](CCC(=O)O)NC(=O)[C@H](C)NC(=O)[C@H](CC(C)C)NC(=O)[C@H](CCCNC(=N)N)NC(=O)[C@H](CCC(N)=O)NC(=O)[C@@H](NC(=O)[C@H](C)NC(=O)[C@@H]1CSSC[C@H](NC(=O)[C@@H](N)CCCCNC(=O)CC[C@H](NC(=O)CC[C@H](NC(=O)CCCCCCCCCCCCCCCCCCC(=O)O)C(=O)O)C(=O)O)C(=O)N[C@@H](CC(N)=O)C(=O)N[C@@H]([C@@H](C)O)C(=O)N[C@@H](C)C(=O)N[C@@H]([C@@H](C)O)C(=O)N1)[C@@H](C)O)C(=O)N1CCC[C@H]1C(=O)N[C@@H](CO)C(=O)N[C@@H](CO)C(=O)N[C@H](C(=O)N[C@@H](CC(N)=O)C(=O)N[C@H](C(=O)NCC(=O)N1CCC[C@H]1C(=O)N[C@@H](CCC(=O)O)C(=O)N[C@H](C(=O)N1CCC[C@H]1C(N)=O)[C@@H](C)O)C(C)C)[C@@H](C)O
With B1, the IC50 in assay [3] came to 0.533 nM.
